Assay results: patent US20090111753A1, “Nogo-A Polypeptide Fragments, Variant Nogo Receptor-1 Polypeptides, and Uses Thereof” (Yale University, priority 2004, published 2009)

T1: AP-Nogo66 (Homo sapiens, UniProt Q9NQC3)
T1 construct: made in house; NgR mutants: COS-7
T1 sequence (Q9NQC3 1055-1120 limits assumed): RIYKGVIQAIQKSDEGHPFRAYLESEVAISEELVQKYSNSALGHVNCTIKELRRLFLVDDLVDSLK

T2: AP-B4C (Homo sapiens, UniProt Q9NQC3)
T2 construct: a.a; 950-1018 (AmNg B4C); made in house; host or cells: AP ligand: HEK293T conditioned medium; NgR mutants: COS-7
T2 sequence (Q9NQC3 950-1018): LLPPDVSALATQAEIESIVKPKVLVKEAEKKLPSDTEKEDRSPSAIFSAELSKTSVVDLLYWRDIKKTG

T3: AP-Lingo-1 (Homo sapiens, UniProt Q96FE5)
T3 construct: made in house; NgR mutants: COS-7
T3 sequence (Q96FE5 40-538 limits assumed): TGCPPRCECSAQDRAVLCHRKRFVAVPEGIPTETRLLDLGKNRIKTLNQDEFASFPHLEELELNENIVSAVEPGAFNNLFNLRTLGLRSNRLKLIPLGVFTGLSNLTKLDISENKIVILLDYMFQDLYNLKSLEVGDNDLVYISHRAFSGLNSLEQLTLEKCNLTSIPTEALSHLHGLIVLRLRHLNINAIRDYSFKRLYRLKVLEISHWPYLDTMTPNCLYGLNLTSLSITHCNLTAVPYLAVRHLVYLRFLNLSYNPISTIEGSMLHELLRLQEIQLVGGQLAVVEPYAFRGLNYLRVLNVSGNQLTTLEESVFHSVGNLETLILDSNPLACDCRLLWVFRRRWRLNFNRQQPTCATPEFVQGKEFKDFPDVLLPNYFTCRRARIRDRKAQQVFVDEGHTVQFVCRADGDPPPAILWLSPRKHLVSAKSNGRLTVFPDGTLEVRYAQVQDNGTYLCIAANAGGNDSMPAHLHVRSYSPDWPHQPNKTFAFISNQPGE


Experiments:
NgR ligands = assay: Binding of alanine substituted NgR mutants to NgR ligands, summary categories; conditions: AP-Nogo66, AP-B4C, AP-B4C66, AP-Lingo-1, AP-OMgp and AP-MAG; compared to wild type NgR
Excerpt: (§1) To better define how multiple ligands bind to the NgR protein, we examined a series of Ala-substituted NgR for ligand binding activity. NgR mutagenesis was done using the Quick Change Multisite Directed Mutagenesis Kit (Stratagene catalog #200514). Human NgR1 was used as a template. Ala substitutions were generated for each of the charged residues predicted to be solvent accessible at the surface of the ligand binding domain of NgR (Barton, W. A., et al., Embo J. 22:3291-3302 (2003); He, X. L., et al., Neuron 38:177-185 (2003)). We generated mutants in which 1-8 surface residues localized within 5 A of one another were Ala-substituted. Because of the coiling nature of the LRR structure, as residues juxtaposed on the protein surface are commonly separated by approximately 25 residues in the primary structure. In addition to mutations in specific charged surface patches, other mutations were targeted to glycosylation sites and to regions predicted to be involved in ligand binding based on the NgR structure (Barton, W. A., et al., Embo J. 22:3291-3302 (2003); He, X. L., et al., Neuron 38:177-185 (2003)). In addition, a variant corresponding to a human polymorphism was examined (D259N). None of the mutations altered the Leu residues that define the LRR structure itself or the Cys residues critical in the amino and carboxyl terminal capping domains. The vast majority of such Ala surface substitution mutants were expressed as immunoreactive polypeptides with a molecular weight and an expression level indistinguishable from wild type NgR (FIG. 4C and data not shown).
(§2) This collection of 74 individual NgR mutants was interrogated for AP-Nogo-66, AP-Amino-Nogo-B4C, AP-MAG, AP-OMgp, and AP-Lingo-1 binding. AP-Nogo66, AP-MAG, AP-OMGP and AP-Lingo-1 constructs are described elsewhere (Fournier, A. E., et al., Nature 409:341-346 (2001); Liu, B. P., et al., Science 297:1190-1193 (2002); Mi, S., et al., Nat. Neurosci. 7:221-228 (2004); Wang, K. C., et al., Nature 417:941-944 (2002b)). The properties of the NgR mutants fell into one of three major categories (Table II and FIG. 5). A number of Ala substituted NgR polypeptides bound all of the ligands at wild type levels. […] In addition, a significant extent of the concave surface is dispensable for ligand binding.
Alanine substituted NgR mutants were tested for their binding to AP-Nogo66, AP-B4C, AP-B4C66, AP-Lingo-1, AP-OMgp and AP-MAG and they fall into three categories: (1) Mutants that lose binding to all NgR ligands. (2) Mutants that still maintain binding to all NgR ligands. […] The D259N mutant is an asparagine substitution to mimic a human polymorphism.

AP-Nogo66 = target: T1, AP-Nogo66; assay: Binding of AP-Nogo66 to COS-7 cells expressing NgR mutants; design: key: ++: WT level; +: weaker than wild type; trace binding; −: no binding; conditions: AP-Ng66 5 nM; level of binding compared to wild type NgR
Method: (§3) FIG. 4A. […] Binding of AP or AP fused NgR ligands to COS-7 cells expressing different NgR mutants as indicated. The concentrations of ligands applied were: AP, 30 nM; AP-Ng66, 5 nM; AP-Ng33, 10 nM; AP-B4C, 10 nM; AP-B4C66, 0.5 nM; AP-Lingo-1, 10 nM; AP-OMGP, 10 nM; AP-MAG, 30 nM. These concentrations are close to the binding Kd of these proteins to NgR so that any […] is reflected linearly in staining.
(§4) FIG. 4B. AP binding of NgR ligands to NgR mutants expressed as percentage of wild type NgR. AP after incubation with AP fused ligands, AP bound to COS-7 cells expressing NgR or NgR mutants were stained and measured.
as §1, §2
(§5) Binding of Alanine substituted NgR mutants to NgR ligands were compared to wild type NgR and the levels of binding were categorized as ++ (WT level), + (weaker than wild type), tr (trace binding), − (no binding), N/A (not determined). NgR mutant proteins were also subjected to SDS-PAGE and probed by anti-NgR antibodies. Mutants with expression level similar to WT NgR were labeled as “y”.

AP-B4C = target: T2, AP-B4C; assay: Binding of AP-B4C to COS-7 cells expressing NgR mutants; design: key: ++: WT level; +: weaker than wild type; trace binding; −: no binding; conditions: AP-B4C 10 nM; level of binding compared to wild type NgR
Method: as §3, §4, §1, §2, §5

AP-B4C66 = assay: Binding of AP-B4C66 to COS-7 cells expressing NgR mutants; design: key: ++: WT level; +: weaker than wild type; trace binding; −: no binding; conditions: AP-B4C66 0.5 nM; level of binding compared to wild type NgR
Method: as §3, §4, §1, §2, §5

AP-Lingo-1 = target: T3, AP-Lingo-1; assay: Binding of AP-Lingo-1 to COS-7 cells expressing NgR mutants; design: key: ++: WT level; +: weaker than wild type; trace binding; −: no binding; conditions: AP-Lingo-1 10 nM; level of binding compared to wild type NgR
Method: as §3, §4, §1, §2, §5

AP-OMgp = assay: Binding of AP-OMgp to COS-7 cells expressing NgR mutants; design: key: ++: WT level; +: weaker than wild type; trace binding; −: no binding; conditions: AP-OMGP 10 nM; level of binding compared to wild type NgR
Method: as §3, §4, §1, §2, §5

AP-MAG = assay: Binding of AP-MAG to COS-7 cells expressing NgR mutants; design: key: ++: WT level; +: weaker than wild type; trace binding; −: no binding; conditions: AP-MAG 30 nM; level of binding compared to wild type NgR
Method: as §3, §4, §1, §2, §5

Molecule | ligand binding category of NgR mutant (Table II) (NgR ligands) | Ng66 (AP-Nogo66) | B4C (AP-B4C) | B4C-66 (AP-B4C66) | Lingo-1 (AP-Lingo-1) | OMgp (AP-OMgp) | MAG (AP-MAG)
256, 259: human NgR1 mutant, listed residues mutated to alanine (protein) CPGACVCYNEPKVTTSCPQQGLQAVPVGIPAASQRIFLHGNRISHVPAASFRACRNLTILWLHSNVLARIDAAAFTGLALLEQLDLSDNAQLRSVDPATFHGLGRLHTLHLDRCGLQELGPGLFRGLAALQYLYLQDNALQALPDDTFRDLGNLTHLFLHGNRISSVPERAFRGLHSLDRLLLHQNRVAHVHPHAFRDLGRLMTLYLFANNLSALPTEALAPLRALQYLALNANPWVCDCRARPLWAWLQKFRGSSSEVPCSLPQRLAGRDLKRLAANDLQGCAVATGPYHPIWTGRATDEEPLGLPKCCQPDAADKASVLEPGRPASAGNALKGRVPPGDSPPGNGSGPRHINDSPFGTLPGSAEPPLTAVRPEGSEPPGFPTSGPRRRPGCSRKNRTRSHCRLGQAGSGGGGTGDSEGSGALPSLTCSLTPLGLALVLWTVLGPC | Differential binding | ++ | ++ | ++ | ++ | + | −
36, 38, 61: human NgR1 mutant, listed residues mutated to alanine (protein) CPGACVCYNAPAVTTSCPQQGLQAVPVGIPAASQAIFLHGNRISHVPAASFRACRNLTILWLHSNVLARIDAAAFTGLALLEQLDLSDNAQLRSVDPATFHGLGRLHTLHLDRCGLQELGPGLFRGLAALQYLYLQDNALQALPDDTFRDLGNLTHLFLHGNRISSVPERAFRGLHSLDRLLLHQNRVAHVHPHAFRDLGRLMTLYLFANNLSALPTEALAPLRALQYLRLNDNPWVCDCRARPLWAWLQKFRGSSSEVPCSLPQRLAGRDLKRLAANDLQGCAVATGPYHPIWTGRATDEEPLGLPKCCQPDAADKASVLEPGRPASAGNALKGRVPPGDSPPGNGSGPRHINDSPFGTLPGSAEPPLTAVRPEGSEPPGFPTSGPRRRPGCSRKNRTRSHCRLGQAGSGGGGTGDSEGSGALPSLTCSLTPLGLALVLWTVLGPC | Differential binding | + | ++ | ++ | tr | + | tr
78, 81: human NgR1 mutant, listed residues mutated to alanine (protein) CPGACVCYNEPKVTTSCPQQGLQAVPVGIPAASQRIFLHGNRISHVPAASFAACANLTILWLHSNVLARIDAAAFTGLALLEQLDLSDNAQLRSVDPATFHGLGRLHTLHLDRCGLQELGPGLFRGLAALQYLYLQDNALQALPDDTFRDLGNLTHLFLHGNRISSVPERAFRGLHSLDRLLLHQNRVAHVHPHAFRDLGRLMTLYLFANNLSALPTEALAPLRALQYLRLNDNPWVCDCRARPLWAWLQKFRGSSSEVPCSLPQRLAGRDLKRLAANDLQGCAVATGPYHPIWTGRATDEEPLGLPKCCQPDAADKASVLEPGRPASAGNALKGRVPPGDSPPGNGSGPRHINDSPFGTLPGSAEPPLTAVRPEGSEPPGFPTSGPRRRPGCSRKNRTRSHCRLGQAGSGGGGTGDSEGSGALPSLTCSLTPLGLALVLWTVLGPC | Differential binding | ++ | ++ | ++ | tr | ++ | 
95, 97, 122: human NgR1 mutant, listed residues mutated to alanine (protein) CPGACVCYNEPKVTTSCPQQGLQAVPVGIPAASQRIFLHGNRISHVPAASFRACRNLTILWLHSNVLAAIAAAAFTGLALLEQLDLSDNAQLRSVAPATFHGLGRLHTLHLDRCGLQELGPGLFRGLAALQYLYLQDNALQALPDDTFRDLGNLTHLFLHGNRISSVPERAFRGLHSLDRLLLHQNRVAHVHPHAFRDLGRLMTLYLFANNLSALPTEALAPLRALQYLRLNDNPWVCDCRARPLWAWLQKFRGSSSEVPCSLPQRLAGRDLKRLAANDLQGCAVATGPYHPIWTGRATDEEPLGLPKCCQPDAADKASVLEPGRPASAGNALKGRVPPGDSPPGNGSGPRHINDSPFGTLPGSAEPPLTAVRPEGSEPPGFPTSGPRRRPGCSRKNRTRSHCRLGQAGSGGGGTGDSEGSGALPSLTCSLTPLGLALVLWTVLGPC | Differential binding | + | + | + | − | tr | tr
WT: wild type human NgR1 expressed in COS-7 cells (protein, UniProt Q9BZR6 27-447, looked up) Reticulon-4 receptor: CPGACVCYNEPKVTTSCPQQGLQAVPVGIPAASQRIFLHGNRISHVPAASFRACRNLTILWLHSNVLARIDAAAFTGLALLEQLDLSDNAQLRSVDPATFHGLGRLHTLHLDRCGLQELGPGLFRGLAALQYLYLQDNALQALPDDTFRDLGNLTHLFLHGNRISSVPERAFRGLHSLDRLLLHQNRVAHVHPHAFRDLGRLMTLYLFANNLSALPTEALAPLRALQYLRLNDNPWVCDCRARPLWAWLQKFRGSSSEVPCSLPQRLAGRDLKRLAANDLQGCAVATGPYHPIWTGRATDEEPLGLPKCCQPDAADKASVLEPGRPASAGNALKGRVPPGDSPPGNGSGPRHINDSPFGTLPGSAEPPLTAVRPEGSEPPGFPTSGPRRRPGCSRKNRTRSHCRLGQAGSGGGGTGDSEGS |  | ++ | ++ | ++ | ++ | ++ | ++
